{"source": "paper PMC7495503", "molecular_target": "T1, Pgi8Cas13b (Porphyromonas gingivalis ATCC 33277, UniProt B2RL97 1-1119)", "T1 sequence": "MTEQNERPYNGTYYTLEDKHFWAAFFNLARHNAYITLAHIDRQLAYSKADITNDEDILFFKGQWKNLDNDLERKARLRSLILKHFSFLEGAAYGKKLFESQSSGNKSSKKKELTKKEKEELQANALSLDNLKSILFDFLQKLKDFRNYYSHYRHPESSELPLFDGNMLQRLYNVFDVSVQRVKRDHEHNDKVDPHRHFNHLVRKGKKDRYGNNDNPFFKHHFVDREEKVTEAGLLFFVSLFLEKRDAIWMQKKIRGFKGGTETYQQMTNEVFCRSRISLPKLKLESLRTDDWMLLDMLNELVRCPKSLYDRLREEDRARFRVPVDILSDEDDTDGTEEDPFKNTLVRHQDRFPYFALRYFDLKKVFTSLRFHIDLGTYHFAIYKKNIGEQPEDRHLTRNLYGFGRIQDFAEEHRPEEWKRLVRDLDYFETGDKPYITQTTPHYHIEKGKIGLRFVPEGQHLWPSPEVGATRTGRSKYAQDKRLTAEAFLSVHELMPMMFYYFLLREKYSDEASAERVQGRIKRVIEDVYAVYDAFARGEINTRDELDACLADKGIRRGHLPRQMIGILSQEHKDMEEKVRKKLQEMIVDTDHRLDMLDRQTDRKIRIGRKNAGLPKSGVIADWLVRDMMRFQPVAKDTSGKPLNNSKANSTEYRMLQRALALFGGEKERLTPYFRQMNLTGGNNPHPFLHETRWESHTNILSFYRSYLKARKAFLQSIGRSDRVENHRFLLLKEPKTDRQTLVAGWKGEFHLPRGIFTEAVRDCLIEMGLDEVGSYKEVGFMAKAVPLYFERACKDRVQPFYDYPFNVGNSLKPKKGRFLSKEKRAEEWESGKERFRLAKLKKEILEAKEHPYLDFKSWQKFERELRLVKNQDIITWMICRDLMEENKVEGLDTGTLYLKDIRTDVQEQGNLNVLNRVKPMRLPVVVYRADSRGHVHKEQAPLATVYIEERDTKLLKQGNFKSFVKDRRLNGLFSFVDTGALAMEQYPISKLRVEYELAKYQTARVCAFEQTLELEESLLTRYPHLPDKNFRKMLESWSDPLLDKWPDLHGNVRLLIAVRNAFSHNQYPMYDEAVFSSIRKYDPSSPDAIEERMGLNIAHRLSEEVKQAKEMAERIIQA", "assay": "EMSA"}
{"binder": "Pgi8 crRNA (SP2), Cy5 body-labeled (structured_RNA) RNA: GCAAGUGGAAUUAAUCUUUUUUCUUCUUUACGUUGGAUCUUCCCUCUAUUCGAAGGGUACACACAAC", "values": [{"measurement": "Kd", "result": 18, "unit": "nM"}]}
